The test system of one assay is CHO cells. Kind of assay: Cell adhesion assay on coated culture plates, CHO cells. Conditions: culture plates coated with 10 ug/ml protein; 0.1% BSA control. The assay is classed as cell-based. As to the method: Cells were plated on culture plates coated with either 0.1% BSA (as a control), 10 ug/ml fibronectin (FN), or 10 ug/ml recombinant tropoelastin, and assayed for adherence to the coated substrate.
96-well plates were coated in duplicate overnight at 4° C. with 10 μg/ml collagen, fibronectin, tropoelastin, or 0.1% bovine serum albumin (BSA). Cells were harvested with 0.25% trypsin/1 mM EDTA, washed three times in adhesion buffer (0.5% BSA in basal medium), suspended at a working density of 5×10^5/ml in adhesion buffer, and then allowed to recover for 1 h at 37° C. (5% CO2). For integrin-blocking assays, 25 μg/ml anti-integrin antibodies (Chemicon, Temecula, Calif.) or control IgG (Jackson ImmunoResearch Laboratories, Inc, West Grove, Pa.) were added to the cell suspension during the recovery period. During the cell recovery, the coated 96-well plates were washed twice in dPBS and blocked for 1 h at 25° C. in 5.0% BSA (dPBS). The blocking solution was removed, and the wells were washed twice in dPBS. Recovered cells were added to the coated wells in a volume of 100 μl per well and placed at 37° C. for 30 minutes (5% CO2). […] Readings represent the number of adherent cells/well (average six high powered 100× fields, three taken from each of two separate wells).

Assay [1] deals with human microvessel endothelial cells (HMVEC). Briefly: Adhesion assay on coated stainless steel disks, HMVEC. The assay is classed as cell-based. As to conditions: FIG. 6. The text has this: Given that an important aspect of the present invention is the prevention of restenosis and thrombosis, we conducted experiments to address whether endothelial cells would adhere to metal devices that had been coated with tropoelastin. Briefly, tropoelastin was covalently conjugated to a stainless steel disk approximately 6 mm in diameter. Tropoelastin was linked to the disk surface using an intermediate polysaccharide molecule. An exemplary process for covalently linking tropoelastin to the disk surface, and the process used here, is used in the manufacture of Genous Bio-Engineered R Stents. These disks provided ample surface area for microscopic imaging. Disks were also similarly coated with anti-CD34 antibody and with polysaccharide vehicle alone. Stents coated with anti-CD34 antibody using a similar process (Genous Bio-Engineered R Stents) are currently in human clinical trials and have promise to promote capture of circulating endothelial cells and endothelial progenitor cells and to accelerate endothelialization.
Human microvessel endothelial cells (HMVEC) were cultured with these coated disks, and adhesion of the cells to the coated disks was assayed. […]

B1: tropoelastin: recombinant human tropoelastin lacking native signal sequence, 10× His tag and Factor Xa site on N-terminus, 706 amino acid residues (SEQ ID NO: 4) (protein, listed as Homo sapiens)
chain: MGHHHHHHHHHHSSGGIEGRGGVPGAIPGGVPGGVFYPGAGLGALGGGALGPGGKPLKPVPGGLAGAGLGAGLGAFPAVTFPGALVPGGVADAAAAYKAAKAGAGLGGVPGVGGLGVSAGAVVPQPGAGVKPGKVPGVGLPGVYPGGVLPGARFPGVGVLPGVPTGAGVKPKAPGVGGAFAGIPGVGPFGGPQPGVPLGYPIKAPKLPGGYGLPYTTGKLPYGYGPGGVAGAAGKAGYPTGTGVGPQAAAAAAAKAAAKFGAGAAGVLPGVGGAGVPGVPGAIPGIGGIAGVGTPAAAAAAAAAAKAAKYGAAAGLVPGGPGFGPGVVGVPGAGVPGVGVPGAGIPVVPGAGIPGAAVPGVVSPEAAAKAAAKAAKYGARPGVGVGGIPTYGVGAGGFPGFGVGVGGIPGVAGVPGVGGVPGVGGVPGVGISPEAQAAAAAKAAKYGVGTPAAAAAKAAAKAAQFALLNLAGLVPGVGVAPGVGVAPGVGVAPGVGLAPGVGVAPGVGVAPGVGVAPGIGPGGVAAAAKSAAKVAAKAQLRAAAGLGAGIPGLGVGVGVPGLGVGAGVPGLGVGAGVPGFGAVPGALAAAKAAKYGAAVPGVLGGLGALGGVGIPGGVVGAGPAAAAAAAKAAAKAAQFGLVGAAGLGGLGVGGLGVPGVGGLGGIPPAAAAKAAKYGVAARPGFGLSPIFPGGACLGKACGRKRK
Consider B1, for which the “adhesion of CHO cells to the coated substrate” value in the assay with CHO cells was “do not adhere to tropoelastin”. The “HMVEC adhesion to coated disks relative to anti-CD34 antibody coated disks” value in assay [1] is reported as “comparable to the adhesion of HMVECs to stainless steel disks coated with an anti-CD34 antibody”. Also, the “adhesion of HMVEC to coated stainless steel disks” value in assay [1] (protein covalently conjugated to 6 mm disk) is reported as “promoted adhesion of human endothelial cells to a metal device”.

Source of the values: patent publication US10052415B2, “Tropoelastin for promoting endothelial cell adhesion or migration” (University of Utah Research Foundation, priority 2005, dated 2018).
